Experimental findings from patent US12404345B2, “Humanized antibodies against iRHOM2” (SCIRHOM GMBH, priority 2021, dated 2025) are described below.

In the assay the target is T1, mouse iRhom2 (Mus musculus, UniProt Q80WQ6).
T1 construct: MEF-DKO-miR2-FL-WT-T7 cells stably expressing mouse iRhom2 full length wild type; expressed in transfected cells; host or cells: immortalized iRhom1/2-/- DKO mouse embryonic fibroblasts, pMSCV retroviral infection
T1 sequence (Q80WQ6 1-827): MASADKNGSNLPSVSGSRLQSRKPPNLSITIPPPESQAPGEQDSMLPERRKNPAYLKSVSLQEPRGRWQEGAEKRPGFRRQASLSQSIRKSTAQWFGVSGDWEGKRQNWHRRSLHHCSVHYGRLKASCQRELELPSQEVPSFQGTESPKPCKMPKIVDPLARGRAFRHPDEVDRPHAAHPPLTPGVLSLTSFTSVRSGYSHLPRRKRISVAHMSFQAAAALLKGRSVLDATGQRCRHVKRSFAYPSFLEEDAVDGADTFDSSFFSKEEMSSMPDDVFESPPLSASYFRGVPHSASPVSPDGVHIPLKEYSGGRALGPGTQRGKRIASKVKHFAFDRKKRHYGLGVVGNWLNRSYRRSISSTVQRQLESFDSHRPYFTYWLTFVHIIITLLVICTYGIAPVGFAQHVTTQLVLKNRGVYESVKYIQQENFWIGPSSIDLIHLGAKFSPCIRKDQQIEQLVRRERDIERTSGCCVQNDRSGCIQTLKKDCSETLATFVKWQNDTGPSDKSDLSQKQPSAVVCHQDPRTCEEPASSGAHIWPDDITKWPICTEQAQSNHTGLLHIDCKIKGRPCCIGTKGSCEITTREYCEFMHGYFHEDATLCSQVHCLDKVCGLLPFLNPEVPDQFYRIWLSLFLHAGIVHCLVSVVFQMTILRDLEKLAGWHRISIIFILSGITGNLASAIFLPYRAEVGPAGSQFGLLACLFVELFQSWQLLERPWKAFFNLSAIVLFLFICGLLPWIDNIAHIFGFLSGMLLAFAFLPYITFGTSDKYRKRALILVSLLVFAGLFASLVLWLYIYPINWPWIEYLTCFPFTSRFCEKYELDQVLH
Description: FACS mouse cross-reactivity on MEF-DKO-miR2-FL-WT-T7 cells. The class given is binding. As to conditions: antibody at 3 μg/ml. The text has this: Next, immortalized iRhom1/2−/− DKO MEFs were reconstituted with a tagged form of human iRhom2 to test target recognition of humanized antibodies of the invention. Additionally, iRhom1/2−/− DKO MEFs stably expressing a tagged form of mouse iRhom2 were generated in order to determine cross-reactivity of the humanized antibodies 16-B-03, 16-B-05, 16-B-07, 23-B-04, 42-B-02 and 42-B-04 of the invention with the mouse orthologue of iRhom2.
In brief, on day 1, Phoenix-ECO cells (American Type Culture Collection, USA) were seeded on 6-well tissue culture plates (Greiner, Germany) in standard growth medium at 8×10^5 cells per well and kept overnight at 37° C., 5% CO2. On day 2, the medium was replaced by fresh medium supplemented with chloroquine (Sigma-Aldrich, USA) at a final concentration of 25 μM. Applying the calcium phosphate method, cells were transfected with 2 μg/ml of pMSCV (Clontech, USA) empty vector, pMSCV-hiR2-FL-WT-T7 encoding human iRhom2 full length wild type C-terminally tagged with 3 consecutive copies of the T7 epitope (MASMTGGQQMG) or pMSCV-miR2-FL-WT-T7 encoding mouse iRhom2 full length wild type C-terminally tagged with 3 consecutive copies of the T7 epitope, and were kept at 37° C., 5% CO2. After 7 hours, the transfections were stopped by replacing cell supernatants with standard growth medium lacking chloroquine, and cells were incubated at 37° C., 5% CO2 to allow virus production overnight. In parallel, immortalized iRhom1/2−/− DKO MEFs as target cells for retroviral infection were seeded on 6-well tissue culture plates (Greiner, Germany) in standard growth medium at 1×10^5 cells per well and were also kept overnight at 37° C., 5% CO2. On day 3, the supernatants of Phoenix-ECO cells releasing pMSCV, pMSCV-hiR2-FL-WT-T7 or pMSCV-miR2-FL-WT-T7 ecotrophic virus were collected, filtered with 0.45 μm CA filters, and supplemented with 4 μg/ml of polybrene (Sigma-Aldrich, USA). Upon removal of medium from the immortalized iRhom1/2−/− DKO MEFs, the virus containing supernatants were added to the target cells for 4 hours at 37° C., 5% CO2 for first infection. Simultaneously, Phoenix-ECO cells were re-incubated with fresh medium, which, after another 4 hours, was filtered and used for the second infection of the respective target cell populations, again in the presence of 4 μg/ml of polybrene. Likewise, a third, but overnight infection cycle was performed. On day 4, virus containing cell supernatants were replaced by fresh standard growth medium. From day 5 onwards, cells were grown in the presence of 2 mg/ml of geneticin (G418, Thermo Fisher Scientific, USA) for the selection of immortalized MEF-DKO-EV control cells stably infected with pMSCV empty vector, MEF-DKO-hiR2-FL-WT-T7 cells stably expressing human iRhom2 full length wild type C-terminally tagged with 3 consecutive copies of the T7 epitope, and MEF-DKO-miR2-FL-WT-T7 cells stably expressing mouse iRhom2 full length wild type C-terminally tagged with 3 consecutive copies of the T7 epitope. Upon propagation, cells were stocked for future usage.
In brief, immortalized MEF-DKO-EV control cells, MEF-DKO-hiR2-FL-WT-T7 cells and MEF-DKO-miR2-FL-WT-T7 cells were harvested with 10 mM EDTA in PBS, washed and resuspended in FACS buffer (PBS, 3% FBS, 0.05% sodium azide), and seeded in Nunc U-bottom 96-well plates (Thermo Fisher Scientific, USA) at approximately 3×10^5 cells per well. To pellet cells and remove supernatants, the plates were centrifuged at 1,500 rpm and 4° C. for 3 minutes. For primary staining, cells were resuspended in 100 μl per well of either FACS buffer alone (controls), mouse monoclonal anti-T7 IgG (Merck Millipore, USA) at 3 μg/ml FACS buffer or the humanized antibodies 16-B-03, 16-B-05, 16-B-07, 23-B-04, 42-B-02 and 42-B-04 of the invention also at 3 μg/ml FACS buffer and incubated on ice for 1 hour. Afterwards, plates were centrifuged at 1,500 rpm and 4° C. for 3 minutes and washed twice with 200 μl per well of FACS buffer. […]

B1: 23-B-04: humanized antibody binding human iRhom2; HCVD SEQ ID NO 25, LCVD SEQ ID NO 29 (antibody, V domains shown)
VH: QVTLRESGPALVKPTQTLTLTCTFSGFSLSTFGMGVGWIRQPPGKALEWLAHIWWDDEKYYNSALKSRLTISKDTSKNQVVLTITNMDPVDTATYYCARISNYGSNYWYFNVWGQGTLVTVSS
VL: AIQLTQSPSSLSASVGDRVTITCRASSSVSYMYWYQQKPGKAPKVLIYDTSNLASGVPSRFSGSGSGTDYTLTISSLQPEDFATYYCQQWNAYPLTFGQGTKLEIK
modifications: antibody sequences
As for B1, the “binding to mouse iRhom2 on MEF-DKO-miR2-FL-WT-T7 cells (mouse cross-reactivity)” value (“binding to mouse iRhom2” below) is on record as “none of these humanized antibodies of the invention are cross-reactive”.

B2: 42-B-04: humanized antibody binding human iRhom2; HCVD SEQ ID NO 41, LCVD SEQ ID NO 45 (antibody, V domains shown)
VH: QVTLRESGPALVKPTQTLTLTCTFSGFSLSTFGRGVGWIRQPPGKALEWLAHIWWDDEKYYNSALKSRLTISKDTSKNQVVLTITNMDPVDTATYYCARIQNYGSNYWYFDVWGQGTLVTVSS
VL: AIQLTQSPSSLSASVGDRVTITCRASSRISYMFWYQQKPGKAPKVLIYDTSNLASGVPSRFSGSGSGTDYTLTISSLQPEDFATYYCQQWNAYPLTFGQGTKLEIK
modifications: antibody sequences
For the molecule B2, the “binding to mouse iRhom2” value is “none of these humanized antibodies of the invention are cross-reactive”.

B3: 42-B-02: humanized antibody binding human iRhom2; HCVD SEQ ID NO 33, LCVD SEQ ID NO 37 (antibody, V domains shown)
VH: QVTLRESGPALVKPTQTLTLTCTFSGFSLSTFGRGVGWIRQPPGKALEWLAHIWWDDEKYYNSALKSRLTISKDTSKNQVVLTITNMDPVDTATYYCARIQNYGSNYWYFDVWGQGTLVTVSS
VL: AIQLTQSPSSLSASVGDRVTITCRASSRISYMFWYQQKPGKAPKVLIYDTSNLASGVPSRFSGSGSGTDYTLTISSLQPEDFATYYCQQWNSYPLTFGQGTKLEIK
modifications: antibody sequences
B3: the “binding to mouse iRhom2” value was “none of these humanized antibodies of the invention are cross-reactive”.

B4: 16-B-03: humanized antibody binding human iRhom2; HCVD SEQ ID NO 1, LCVD SEQ ID NO 5 (antibody, V domains shown)
VH: QVTLRESGPALVKPTQTLTLTCTFSGFSLSTFALGVGWIRQPPGKALEWLAHIWWDDDKYYNPALKSRLTISKDTSKNQVVLTITNMDPVDTATYYCARITTYYYGMDYWGQGTLVTVSS
VL: EIVMTQSPDFQSVTPKEKVTITCRASQSIGNHLHWYQQKPDASPKLLIKYASQSISGVPSRFSGSGSGTDFTLTINSLEAEDAATYFCQQSYQWPLTFGQGTKLEIK
modifications: antibody sequences
In the case of B4, the “binding to mouse iRhom2” value was “no significant binding”.

B5: 16-B-07: humanized antibody binding human iRhom2; HCVD SEQ ID NO 17, LCVD SEQ ID NO 21 (antibody, V domains shown)
VH: QVTLRESGPALVKPTQTLTLTCTFSGFSLSTFALGVGWIRQPPGKALEWLAHIWWDEDKYYNPALKSRLTISKDTSKNQVVLTITNMDPVDTATYYCARITTYYYGMDYWGQGTLVTVSS
VL: EIVMTQSPDFQSVTPKEKVTITCRASQSIGNHLHWYQQKPDASPKLLIKYASQSISGVPSRFSGSGSGTDFTLTINSLEAEDAATYFCQQSYQWPLTFGQGTKLEIK
modifications: antibody sequences
As for B5, the “binding to mouse iRhom2” value was “none of these humanized antibodies of the invention are cross-reactive”.

B6: 16-B-05: humanized antibody binding human iRhom2; HCVD SEQ ID NO 9, LCVD SEQ ID NO 13 (antibody, V domains shown)
VH: QVTLRESGPALVKPTQTLTLTCTFSGFSLSTFALGVGWIRQPPGKALEWLAHIWWDEDKYYNPALKSRLTISKDTSKNQVVLTITNMDPVDTATYYCARITTYYYGMDYWGQGTLVTVSS
VL: EIVMTQSPDFQSVTPKEKVTITCRASQSIGNHLHWYQQKPDASPKLLIKYASQSISGVPSRFSGSGSGTDFTLTINSLEAEDAATYFCQQSYNWPLTFGQGTKLEIK
modifications: antibody sequences
B6: the “binding to mouse iRhom2” value is “none of these humanized antibodies of the invention are cross-reactive”.
